Measured values: US20070098715A1

Target: Ten-M2 endogenously expressed on human cancer cell lines (SNB-19 and others) (human) (UniProt Q9NT68)
Assay: flow cytometry on SNB-19 cells at 4° C., Alexa647 anti-human IgG secondary

Total Bound Fluorescence: 2.2
Substance: isotype control Ab (antibody)
